Three molecules from patent US20240000786A1, “COMPOSITION FOR ENHANCING INTRA-CELLULAR NITRIC OXIDE GENERATION” (INSTITUTE OF LIFE SCIENCES, priority 2020, published 2024) can be followed below.

First the molecules themselves.
T1: recombinant Nitric oxide synthase interacting protein (NOSIP)
T1 chain: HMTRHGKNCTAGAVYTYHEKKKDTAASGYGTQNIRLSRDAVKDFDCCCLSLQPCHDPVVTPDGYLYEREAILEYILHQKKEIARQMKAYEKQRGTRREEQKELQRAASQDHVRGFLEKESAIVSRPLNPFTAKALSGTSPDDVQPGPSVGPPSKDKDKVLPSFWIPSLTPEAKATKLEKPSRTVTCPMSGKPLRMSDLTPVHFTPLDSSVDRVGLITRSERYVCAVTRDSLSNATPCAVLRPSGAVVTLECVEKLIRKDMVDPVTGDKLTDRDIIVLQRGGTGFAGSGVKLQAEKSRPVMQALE

B1: iNOS Peptide-2 (18 mer iNOS peptide) (peptide)
peptide: NQYYGSFKEAKIEEHLAR
notes: 18-residue iNOS-derived peptide, synthesized commercially by China peptides; also called PP2; PP-2
B2: recombinant Nitric oxide synthase interacting protein (NOSIP) (other)
chain: T1 chain
notes: It was synthesized by GenScript, cloned in pET22b, expressed in E. coli BL21 (DE3) and purified on Ni-NTA and by gel filtration; A His tag is implied but never described; also called rNOSIP; recombinant NOSIP
B3: recombinant human iNOS oxygenase domain (protein)
chain: HMPRHVRIKNWGSGMTFQDTLHHKAKGILTCRSKSCLGSIMTPKSLTRGPRDKPTPPDELLPQAIEFVNQYYGSFKEAKIEEHLARVEAVTKEIETTGTYQLTGDELIFATKQAWRNAPRCIGRIQWSNLQVFDARSCSTAREMFEHICRHVRYSTNNGNIRSAITVFPQRSDGKHDFRVWNAQLIRYAGYQMPDGSIRGDPANVEFTQLCIDLGWKPKYGRFDVVPLVLQANGRDPELFEIPPDLVLEVAMEHPKYEWFRELELKWYALPAVANMLLEVGGLEFPGCPFNGWYMGTEIGVRDFCDVQRYNILEEVGRRMGLETHKLASLWKDQAVVEINIAVLHSFQKQNVTIMDHHSAAESFMKYMQNEYRSRGGCPADWIWLVPPMSGSITPVFHQEMLNYVLSPFYYYQVEAWKTHVWQDEKLE

For data set [1], the target named is B2. Put plainly: ITC; this row is the reference of the fold change in Table 1. As for the experimental part: (§1) The 18 mer iNOS peptide (PP2) and small molecules were used for physical association of molecules in calorimetric analysis. The molecular association leads to thermodynamics changes such as Gibb's free energy change (ΔG), entropy change (ΔS), enthalpy change (ΔH) and number of binding sites (N) in interacting solution were investigated by isothermal calorimetry MICROCAL PEQ (Malvern) at 25° C. The sample cell were filled with peptides, small molecules and the reference cell was filled with 25 mM HEPES and 150 mM Sodium chloride, pH=7 and the syringe was filled with NOSIP solution (200 μM). The experiment consisted of multiple injections and each injection contained 1.5 μl of binding solution (recombinant NOSIP solution) with 120 second spacing time between subsequent injections. Sequential titrations were carried out and the sample solution was continuously stirred at 270 rpm by the rotating paddle attached to the syringe needle. Multiple injections of NOSIP made into the sample cell containing interacting solution of peptide and small molecules. The titration curves were analyzed using the analysis software provided with the calorimeter.
The 18 mer iNOS peptide (PP2) and five small molecules were used to analyze physical association in calorimetric analysis. […] The titration curves were analyzed using the analysis software provided with the calorimeter.

Data set [2] addresses B2. The experiment in a line: ITC (MicroCal PEAQ), peptide in cell, rNOSIP in syringe, 25 C. The protocol: as §1
The 18 mer iNOS peptide (PP2) and five small molecules were used to analyze physical association in calorimetric analysis. The molecular association leads to thermodynamics changes such as Gibb's free energy change (ΔG), entropy change (ΔS), enthalpy change (ΔH) and number of binding sites (N) in interacting solution were investigated by isothermal calorimetry MICROCAL PEQ (Malvern) at 25° C. The sample cell were filled with peptides, small molecules and the reference cell was filled with 25 mM HEPES and 150 mM Sodium chloride, pH=7 and the syringe was filled with NOSIP solution (200 μM). The experiment consisted of multiple injections and each injection contained 1.5 μl of binding solution with 120 second spacing time between subsequent injections. Sequential titrations were carried out and the sample solution was continuously stirred at 270 rpm by the rotating paddle attached to the syringe needle. Multiple injections of NOSIP made into the sample cell containing interacting solution of peptide and small molecules. The titration curves were analyzed using the analysis software provided with the calorimeter.

For data set [3], the target named is B2. The experiment in a line: ITC, 10 µM iNOS peptide in the chamber, 150 µM rNOSIP in syringe, 25 C. The protocol:
(§2) The predictions were tested for validation by […] (SPR). […] The other 3 peptides (Peptide-1, SEQ ID No: 25), (Peptide3, SEQ ID No: 27), and (peptide-4, SEQ ID No: 28) were less efficient in inhibiting interaction between iNOS and NOSIP as shown in FIG. 2(a). […] NOSIP and iNOS peptide (PP2) binding was measured by titrating 10 μM iNOS peptide in the chamber with 150 μM rNOSIP in syringe at 25° C. Top panel, raw heating power over time; Bottom panel, fit of integrated injection enthalpy over the mole ratio of the reactants.
(ITC needs no label: the signal is the heat of the interaction.)

In data set [4] the target is B2. Put plainly: ITC, 10 µM iNOS peptide in the chamber, 150 µM rNOSIP in syringe, 25 C; ITC, 25 C; 10 µM iNOS peptide in chamber, 150 µM rNOSIP in syringe. The protocol:
as §2

Data set [5] concerns the target T2, recombinant human iNOS oxygenase domain (human, UniProt P35228 82-505).
T2 construct: It was cloned in pET22b, expressed in E. coli BL21 (DE3) and purified on Ni-NTA and by gel filtration; A His tag is implied but never described; In SPR it was immobilised on a GLC chip by amine coupling; also called riNOS; r iNOS
Put plainly: SPR, iNOS immobilised; KD ratio against the row rNOSIP + iNOS peptide2 (= 1). The protocol: (§3) Four different iNOS peptides were synthesized commercially by China peptides and iNOS peptides were used for molecular interaction studies with immobilized recombinant iNOS purified protein. The iNOS peptides mediated inhibition of rNOSIP and riNOS protein association in Bio-Rad XPR 36 surface plasmon resonance biosensor instrument. […] 250 nM of iNOS peptides was used for inhibition assay with immobilized ligand(recombinant iNOS) in SPR analysis. Similar condition and concentration of small molecules were used for inhibition of recombinant protein association with immobilized ligand. […] The molecular interaction was carried out at 20° C. and kinetic parameters were determined, after fitting the association and dissociation curves to a 1:1 (Langmuir)-binding model. […] The response curves were also recorded on control surfaces. Results were calculated after subtraction of the control values using the ProteOn Manager software.
(§4) The five small molecules bind with NOSIP and inhibit the association of recombinant NOSIP and recombinant iNOS. […] The molecular interaction was carried out at 20° C. and kinetic parameters were determined, after fitting the association and dissociation curves to a 1:1 (Langmuir)-binding model. […] The response curves were also recorded on control surfaces. Results were calculated after subtraction of the control values using the ProteOn Manager software. […]
On the technique in general: Surface plasmon resonance follows binding to a sensor surface in real time, without labels.

Data set [6] addresses T2, recombinant human iNOS oxygenase domain. Put plainly: SPR, iNOS immobilised, rNOSIP with iNOS peptide 2; this row is the reference of the fold change.
For data set [7] the target is unchanged. Put plainly: SPR, iNOS immobilised, rNOSIP with small molecule CC4; KD ratio against the row rNOSIP + iNOS peptide2. The protocol: as §3, §4
Data set [8] has the same target. Put plainly: SPR, iNOS immobilised, rNOSIP with small molecule CC5; KD ratio against the row rNOSIP + iNOS peptide2. The protocol: as §3, §4
The target is the same in data set [9]. Put plainly: SPR, iNOS immobilised, rNOSIP with small molecule CC6; KD ratio against the row rNOSIP + iNOS peptide2. As for the experimental part:
as §3, §4

For data set [10] the target is unchanged. The experiment in a line: SPR, iNOS immobilised, rNOSIP with small molecule CC11; KD ratio against the row rNOSIP + iNOS peptide2. The protocol: as §3, §4
Data set [11] has the same target. Put plainly: SPR, iNOS immobilised, rNOSIP with small molecule CC13; KD ratio against the row rNOSIP + iNOS peptide2. The protocol:
as §3, §4

Data set [12] shares this target. The experiment in a line: SPR, iNOS immobilised, rNOSIP pre-incubated 30 min on ice with iNOS peptide 2 (competitor), 20 C, 1:1 Langmuir fit. The protocol: as §3
(§5) The five small molecules bind with NOSIP and inhibit the association of recombinant NOSIP and recombinant iNOS. […] The molecular interaction was carried out at 20° C. and kinetic parameters were determined, after fitting the association and dissociation curves to a 1:1 (Langmuir)-binding model. […] The response curves were also recorded on control surfaces. Results were calculated after subtraction of the control values using the ProteOn Manager software.

Data set [13] shares this target. The experiment in a line: SPR (Bio-Rad ProteOn XPR36), iNOS immobilised on GLC chip by amine coupling, NOSIP as analyte, 20 C, 1:1 Langmuir fit. The protocol: (§6) Four different iNOS peptides were synthesized commercially by China peptides and iNOS peptides were used for molecular interaction studies with immobilized recombinant iNOS purified protein. The iNOS peptides mediated inhibition of rNOSIP and riNOS protein association in Bio-Rad XPR 36 surface plasmon resonance biosensor instrument. […] 250 nM of iNOS peptides was used for inhibition assay with immobilized ligand(recombinant iNOS) in SPR analysis. Similar condition and concentration of small molecules were used for inhibition of recombinant protein association with immobilized ligand. […] The rNOSIP protein was incubated with iNOS derived peptide/small molecules for 30 minutes in ice for inhibition assay before the SPR application in our study. The molecular interaction was carried out at 20° C. and kinetic parameters were determined, after fitting the association and dissociation curves to a 1:1 (Langmuir)-binding model. An activated channel without immobilized ligand was used to evaluate nonspecific binding. The response curves were also recorded on control surfaces. Results were calculated after subtraction of the control values using the ProteOn Manager software.
Manager software was used to fit the data with the Langmuir model describing a 1:1 binding stoichiometry. Ka is the association rate constant, Kd is the dissociation rate constant, and KD is the equilibrium dissociation constant, defined by the Kd/Ka ratio for the analytes—ligand binding.

For data set [14] the target is unchanged. The experiment in a line: SPR, iNOS immobilised, rNOSIP pre-incubated 30 min on ice with small molecule CC4 (inhibitor), 20 C, 1:1 Langmuir fit. As for the experimental part:
as §3, §5

For data set [15] the target is unchanged. The experiment in a line: SPR, iNOS immobilised, rNOSIP pre-incubated 30 min on ice with small molecule CC5 (inhibitor), 20 C, 1:1 Langmuir fit. The protocol:
as §3, §4

Data set [16] shares this target. The experiment in a line: SPR, iNOS immobilised, rNOSIP pre-incubated 30 min on ice with small molecule CC6 (inhibitor), 20 C, 1:1 Langmuir fit. The protocol: as §3, §4
Data set [17] has the same target. Put plainly: SPR, iNOS immobilised, rNOSIP pre-incubated 30 min on ice with small molecule CC11 (inhibitor), 20 C, 1:1 Langmuir fit. The protocol: as §3, §4
For data set [18] the target is unchanged. The experiment in a line: SPR, iNOS immobilised, rNOSIP pre-incubated 30 min on ice with small molecule CC13 (inhibitor), 20 C, 1:1 Langmuir fit. As for the experimental part: as §3, §4
Data set [19] has the same target. Put plainly: SPR, NOSIP 1000 nM to 62.5 nM over immobilised iNOS in presence of 250 nM iNOS PP2 (competitor), Kinetic-Langmuir analysis (FIG. 2(b)). The protocol:
FIG. 2 depicts inhibition of iNOS-NOSIP protein interaction by iNOS derived peptides. […] These interactions was inhibited in presence of different iNOS peptides (250 nM) viz; PP1—red line, PP2—sky blue line at bottom of graph, PP3—blue line and PP4—green line.
as §6

Data set [20] deals with T1, recombinant Nitric oxide synthase ….

In the case of B1, in data set [1], the “Fold Change (KD)” value was 1. Moreover, in [2], the “-TΔS” value was -0.1 kcal/mol, the Kd (commonly the constant that tells how readily two partners part at equilibrium) worked out at 0.548 µM, the ΔG was -8.54 kcal/mol and the ΔH was -8.44 kcal/mol. Further, in data set [3], the “-TΔS” value worked out at 0.459 kcal/mol, the N came to 0.993, the ΔG is -8.61 kcal/mol and the ΔH was -9.07 kcal/mol. The Kd in [4] came to 0.493 µM.

Take B2: the “Fold Change (KD)” value worked out at 0.00144 in [5]; 1 in data set [6]; 176 in [7]; 119 in [8]; 142 in data set [9]; 164 in [10]. Also, the “Fold Change (KD)” value in data set [11] came to 110. Further, the “KD (M) in presence of iNOS peptide2” value in data set [12] came to 4.94e-06 M. Also, the Kd in data set [13] amounted to 0.00711 µM. In addition, in [13], the koff – broadly, a measure of how fast the partners let go of each other – was 0.000681 s⁻¹. The kon (as a rule, a measure of how fast the partners come together) in [13] stood at 95700 M⁻¹ s⁻¹. The “KD (M) in presence of small molecule MCULE-4640800528 (CC4)” value in data set [14] was 0.00087 M. In [15], the “KD (M) in presence of small molecule MCULE-8469877005 (CC5)” value was determined as 0.000588 M. Further, the “KD (M) in presence of small molecule MCULE-3765839647 (CC6)” value in [16] was 0.000704 M. In data set [17], the “KD (M) in presence of small molecule MCULE-8094061955 (CC11)” value worked out at 0.000809 M. In [18], the “KD (M) in presence of small molecule MCULE-8395438746 (CC13)” value came out at 0.000543 M. Besides, the “KD in presence of 250 nM iNOS PP2” value in data set [19] amounted to 0.495 µM. The “Ka in presence of 250 nM iNOS PP2” value in data set [19] worked out at 5360. Moreover, in [19], the “Kd in presence of 250 nM iNOS PP2” value is 0.00265.

With B3, the “iNOS enzyme activity (nitrite quantified by Griess reaction, L-Arginine substrate)” value in data set [20] is “recombinant NOSIP inhibits enzyme activity of iNOS”.
